This assay has as its target mTORΔN-mLST8 mTORΔN (Homo sapiens, UniProt P42345). Description: kinase inhibition assay.

B1: PRAS40 114-256 (protein)
chain: not shown
The molecule B1 showed a Ki of roughly 52 µM.

The Ki is the dissociation constant of the complex between target and ligand, obtained from inhibition or displacement. Lower therefore signals a stronger hold on the target.

Source of the values: paper PMC5750076 (2017).
